# According to the Human Domainome abundance scans (Beltran et al. 2025):
# ± gives the uncertainty stated by the source.
# Test: abundance fitness (aPCA) (normalised: wild type 0, dead -1); higher = more abundant; growth selection in yeast, the domain comes from the species named
# Conditions: Homo sapiens
row,Substance,abundance fitness
1,"NEDD4-like E3 ubiquitin-protein ligase WWP2 G478R, O00308",0.032 ± 0.047
2,"NEDD4-like E3 ubiquitin-protein ligase WWP2 G478S, O00308",0.019 ± 0.033
3,"NEDD4-like E3 ubiquitin-protein ligase WWP2 G478T, O00308",0.077 ± 0.059
4,"NEDD4-like E3 ubiquitin-protein ligase WWP2 G478V, O00308",-0.058 ± 0.047
5,"NEDD4-like E3 ubiquitin-protein ligase WWP2 G478W, O00308",-0.017 ± 0.032
6,"NEDD4-like E3 ubiquitin-protein ligase WWP2 G478Y, O00308",-0.084 ± 0.068
7,"NEDD4-like E3 ubiquitin-protein ligase WWP2 G482A, O00308",-0.033 ± 0.042
8,"NEDD4-like E3 ubiquitin-protein ligase WWP2 G482C, O00308",-0.15 ± 0.062
9,"NEDD4-like E3 ubiquitin-protein ligase WWP2 G482E, O00308",-0.064 ± 0.049
10,"NEDD4-like E3 ubiquitin-protein ligase WWP2 G482F, O00308",-0.124 ± 0.06
11,"NEDD4-like E3 ubiquitin-protein ligase WWP2 G482H, O00308",-0.019 ± 0.076
12,"NEDD4-like E3 ubiquitin-protein ligase WWP2 G482I, O00308",-0.077 ± 0.046
13,"NEDD4-like E3 ubiquitin-protein ligase WWP2 G482K, O00308",-0.037 ± 0.068
14,"NEDD4-like E3 ubiquitin-protein ligase WWP2 G482L, O00308",-0.086 ± 0.044
15,"NEDD4-like E3 ubiquitin-protein ligase WWP2 G482M, O00308",-0.121 ± 0.061
16,"NEDD4-like E3 ubiquitin-protein ligase WWP2 G482N, O00308",-0.007 ± 0.039
17,"NEDD4-like E3 ubiquitin-protein ligase WWP2 G482P, O00308",-0.032 ± 0.07
18,"NEDD4-like E3 ubiquitin-protein ligase WWP2 G482Q, O00308",-0.009 ± 0.057
19,"NEDD4-like E3 ubiquitin-protein ligase WWP2 G482R, O00308",-0.097 ± 0.043
20,"NEDD4-like E3 ubiquitin-protein ligase WWP2 G482S, O00308",-0.025 ± 0.033
21,"NEDD4-like E3 ubiquitin-protein ligase WWP2 G482T, O00308",-0.019 ± 0.06
22,"NEDD4-like E3 ubiquitin-protein ligase WWP2 G482V, O00308",-0.108 ± 0.043

row,Substance,abundance fitness
1,"NEDD4-like E3 ubiquitin-protein ligase WWP2 G482W, O00308",-0.151 ± 0.05
2,"NEDD4-like E3 ubiquitin-protein ligase WWP2 G482Y, O00308",-0.089 ± 0.045
3,"NEDD4-like E3 ubiquitin-protein ligase WWP2 G486A, O00308",0.028 ± 0.038
4,"NEDD4-like E3 ubiquitin-protein ligase WWP2 G486C, O00308",-0.023 ± 0.056
5,"NEDD4-like E3 ubiquitin-protein ligase WWP2 G486E, O00308",0.044 ± 0.042
6,"NEDD4-like E3 ubiquitin-protein ligase WWP2 G486F, O00308",-0.205 ± 0.073
7,"NEDD4-like E3 ubiquitin-protein ligase WWP2 G486H, O00308",-0.135 ± 0.062
8,"NEDD4-like E3 ubiquitin-protein ligase WWP2 G486I, O00308",-0.028 ± 0.072
9,"NEDD4-like E3 ubiquitin-protein ligase WWP2 G486L, O00308",-0.066 ± 0.042
10,"NEDD4-like E3 ubiquitin-protein ligase WWP2 G486M, O00308",-0.01 ± 0.036
11,"NEDD4-like E3 ubiquitin-protein ligase WWP2 G486N, O00308",-0.177 ± 0.12
12,"NEDD4-like E3 ubiquitin-protein ligase WWP2 G486P, O00308",0.013 ± 0.049
13,"NEDD4-like E3 ubiquitin-protein ligase WWP2 G486Q, O00308",-0.023 ± 0.054
14,"NEDD4-like E3 ubiquitin-protein ligase WWP2 G486R, O00308",-0.028 ± 0.037
15,"NEDD4-like E3 ubiquitin-protein ligase WWP2 G486S, O00308",-0.041 ± 0.049
16,"NEDD4-like E3 ubiquitin-protein ligase WWP2 G486V, O00308",-0.01 ± 0.043
17,"NEDD4-like E3 ubiquitin-protein ligase WWP2 G486W, O00308",-0.187 ± 0.049
18,"NEDD4-like E3 ubiquitin-protein ligase WWP2 G486Y, O00308",-0.239 ± 0.069
19,"NEDD4-like E3 ubiquitin-protein ligase WWP2 G489A, O00308",-0.007 ± 0.041
20,"NEDD4-like E3 ubiquitin-protein ligase WWP2 G489C, O00308",-0.066 ± 0.031
21,"NEDD4-like E3 ubiquitin-protein ligase WWP2 G489D, O00308",-0.02 ± 0.053
22,"NEDD4-like E3 ubiquitin-protein ligase WWP2 G489E, O00308",0.04 ± 0.049

row,Substance,abundance fitness
1,"NEDD4-like E3 ubiquitin-protein ligase WWP2 G489F, O00308",-0.028 ± 0.078
2,"NEDD4-like E3 ubiquitin-protein ligase WWP2 G489H, O00308",-0.155 ± 0.078
3,"NEDD4-like E3 ubiquitin-protein ligase WWP2 G489I, O00308",-0.035 ± 0.078
4,"NEDD4-like E3 ubiquitin-protein ligase WWP2 G489K, O00308",0.001 ± 0.069
5,"NEDD4-like E3 ubiquitin-protein ligase WWP2 G489L, O00308",-0.039 ± 0.055
6,"NEDD4-like E3 ubiquitin-protein ligase WWP2 G489M, O00308",-0.048 ± 0.07
7,"NEDD4-like E3 ubiquitin-protein ligase WWP2 G489N, O00308",-0.008 ± 0.033
8,"NEDD4-like E3 ubiquitin-protein ligase WWP2 G489P, O00308",-0.049 ± 0.041
9,"NEDD4-like E3 ubiquitin-protein ligase WWP2 G489Q, O00308",-0.157 ± 0.077
10,"NEDD4-like E3 ubiquitin-protein ligase WWP2 G489R, O00308",-0.035 ± 0.036
11,"NEDD4-like E3 ubiquitin-protein ligase WWP2 G489S, O00308",0.039 ± 0.05
12,"NEDD4-like E3 ubiquitin-protein ligase WWP2 G489T, O00308",0.002 ± 0.066
13,"NEDD4-like E3 ubiquitin-protein ligase WWP2 G489V, O00308",-0.031 ± 0.048
14,"NEDD4-like E3 ubiquitin-protein ligase WWP2 G489W, O00308",-0.163 ± 0.057
15,"NEDD4-like E3 ubiquitin-protein ligase WWP2 G489Y, O00308",-0.334 ± 0.087
16,"NEDD4-like E3 ubiquitin-protein ligase WWP2 H465A, O00308",-0.378 ± 0.05
17,"NEDD4-like E3 ubiquitin-protein ligase WWP2 H465C, O00308",-0.411 ± 0.067
18,"NEDD4-like E3 ubiquitin-protein ligase WWP2 H465D, O00308",-0.461 ± 0.06
19,"NEDD4-like E3 ubiquitin-protein ligase WWP2 H465E, O00308",-0.396 ± 0.062
20,"NEDD4-like E3 ubiquitin-protein ligase WWP2 H465I, O00308",-0.207 ± 0.08
